Like-named read-outs stand apart in the source and are kept apart here.

From publication PMC5818262 (ACS chemical biology, 2012) come the findings set out here.

In data set [1] the test system is CC(=O)SCCNC(=O)CCNC(=O)[C@H](O)C(C)(C)COP(=O)(O)OP(=O)(O)OC[C@H]1O[C@@H](n2cnc3c(N)ncnc32)[C@H](O)[C@@H]1OP(=O)(O)O. In words: steady-state initial rates, Hill equation fit. It is filed as biochemical, Escherichia coli.
The test system of data set [2] is Cit1. In words: steady-state initial rates, Hill equation fit. It is filed as biochemical, Streptantibioticus cattleyicolor. As to conditions: read-out: K0.5.
The test system of data set [3] is Cit2. In words: steady-state initial rates, Hill equation fit. As to conditions: read-out: K0.5. It counts as biochemical, Streptantibioticus cattleyicolor.
The target in data set [4] is GltA (Escherichia coli, UniProt P0ABH7). In words: steady-state initial rates, Hill equation fit. It counts as biochemical. The conditions noted are these: read-out: K0.5.
In data set [5] the target is ACS (S. cattleya) (Streptantibioticus cattleyicolor, UniProt F8K1P4). It counts as biochemical.
The target of data set [6] is AckA (S. cattleya) (Streptantibioticus cattleyicolor, UniProt G8X369). It is filed as biochemical.
Substrate in data set [7]: CC(=O)SCCNC(=O)CCNC(=O)[C@H](O)C(C)(C)COP(=O)(O)OP(=O)(O)OC[C@H]1O[C@@H](n2cnc3c(N)ncnc32)[C@H](O)[C@@H]1OP(=O)(O)O
The data set is described as follows: steady-state initial rates, Hill equation fit. It counts as biochemical, Streptomyces coelicolor.

Substrate in data set [8]: CC(C)(COP(=O)(O)OP(=O)(O)OC[C@H]1O[C@@H](n2cnc3c(N)ncnc32)[C@H](O)[C@@H]1OP(=O)(O)O)[C@@H](O)C(=O)NCCC(=O)NCCSC(=O)CF
The data set is described as follows: steady-state initial rates, Hill equation fit. It is filed as biochemical, Streptomyces coelicolor.

Substrate in data set [9]: CC(=O)O
The data set is described as follows: purified protein.

Chain of GltA (P0ABH7 whole entry): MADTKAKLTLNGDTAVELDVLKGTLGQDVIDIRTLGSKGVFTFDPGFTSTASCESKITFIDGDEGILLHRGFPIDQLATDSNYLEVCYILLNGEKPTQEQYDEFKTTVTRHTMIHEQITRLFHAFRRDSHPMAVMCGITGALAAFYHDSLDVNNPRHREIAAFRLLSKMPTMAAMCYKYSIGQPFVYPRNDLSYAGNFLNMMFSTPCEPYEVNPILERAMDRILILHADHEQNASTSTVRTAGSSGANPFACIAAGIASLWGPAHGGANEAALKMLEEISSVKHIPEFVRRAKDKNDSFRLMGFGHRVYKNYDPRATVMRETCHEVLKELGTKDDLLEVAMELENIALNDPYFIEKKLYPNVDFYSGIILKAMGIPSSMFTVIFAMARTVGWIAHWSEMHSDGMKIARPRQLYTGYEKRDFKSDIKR

A word on the kcat: it is the number of substrate molecules converted per active site and unit of time at saturation. As a reminder, the kcat/Km is the turnover number divided by the Michaelis constant. Take GltA (Escherichia coli K-12): in [1], the K0.5 came out at 170 ± 60 µM, the kcat came to 80 ± 10 s⁻¹ and the kcat/Km is 500000 ± 200000 M⁻¹ s⁻¹.
Regarding `CC(=O)SCCNC(=O)CCNC(=O)[C@H](O)C(C)(C)COP(=O)(O)OP(=O)(O)OC[C@H]1O[C@@H](n2cnc3c(N)ncnc32)[C@H](O)[C@@H]1OP(=O)(O)O` [compound 10, Acetyl-CoA], the Km in data set [2] amounted to 15 ± 2 µM; in data set [3] it was 4.9 ± 0.4 µM.
In the case of `CC(C)(COP(=O)(O)OP(=O)(O)OC[C@H]1O[C@@H](n2cnc3c(N)ncnc32)[C@H](O)[C@@H]1OP(=O)(O)O)[C@@H](O)C(=O)NCCC(=O)NCCSC(=O)CF` [compound 9, Fluoroacetyl-CoA], the Km in [2] was found to be 16 ± 4 µM; in [4] it was 5.1 ± 0.3 µM; in data set [3], 0.98 ± 0.05 µM.
On to `O=C(O)CF` [compound 6, Fluoroacetate], for which the Km in data set [5] was determined as 52000 µM; in data set [6] it was 5700 µM.
In the case of `O=C(O)CC(=O)C(=O)O` [Oxaloacetate], the Km amounted to 130 ± 20 µM in data set [2] and 3.8 ± 0.4 µM in data set [3].

B1: CitA (Streptomyces coelicolor A3(2)) (protein)
chain: MSDNSVVLRYGDGEYTYPVIDSTVGDKGFDIGKLRAQTGLVTLDSGYGNTAAYKSAITYLDGEAGILRYRGYPIEQLAERSSFVEVAYLLINGELPTVDELSAFKGEITQHTLLHEDVKNFYKGFPRDAHPMAMLSSVVSALSTFYQDSHNPFDERQRNLSTIRLLAKLPTIAAYAYKKSIGHPFVYPANNLGYVENFLRMTFSVPAQEYELDPTVVAALDKLLILHADHEQNCSTSTVRLVGSSQANMFASISAGINALWGPLHGGANQSVLEMLEGIRDAGGDVDSFIRKVKNKEDGVRLMGFGHRVYKNFDPRAKIIKAAAHDVLSALGKSDELLDIALKLEEHALSDDYFVSRSLYPNVDFYTGLIYRAMGFPTEMFTVLFALGRLPGWIAQWHEMIKEPGSRIGRPRQIYTGVVERDFVPVEER
Consider B1, for which, in data set [7], the K0.5 is 47 ± 2 µM, the turnover number (kcat) came out at 17.9 ± 0.4 s⁻¹ and the specificity constant (kcat/Km) turned out to be 380000 ± 10000 M⁻¹ s⁻¹. In [8], the K0.5 was 15.4 ± 0.8 µM and the specificity constant (kcat/Km) was found to be 126000 ± 8000 M⁻¹ s⁻¹.

B2: AckA (E. coli) (Escherichia coli K-12) (protein)
chain: MSSKLVLVLNCGSSSLKFAIIDAVNGEEYLSGLAECFHLPEARIKWKMDGNKQEAALGAGAAHSEALNFIVNTILAQKPELSAQLTAIGHRIVHGGEKYTSSVVIDESVIQGIKDAASFAPLHNPAHLIGIEEALKSFPQLKDKNVAVFDTAFHQTMPEESYLYALPYNLYKEHGIRRYGAHGTSHFYVTQEAAKMLNKPVEELNIITCHLGNGGSVSAIRNGKCVDTSMGLTPLEGLVMGTRSGDIDPAIIFHLHDTLGMSVDAINKLLTKESGLLGLTEVTSDCRYVEDNYATKEDAKRAMDVYCHRLAKYIGAYTALMDGRLDAVVFTGGIGENAAMVRELSLGKLGVLGFEVDHERNLAARFGKSGFINKEGTRPAVVIPTNEELVIAQDASRLTA
With B2, in [9], the Km result is recorded as “(2.7 ± 0.2) × 10^4 μM”, the kcat turned out to be 1340 s⁻¹ and the specificity constant (kcat/Km) is 50000 M⁻¹ s⁻¹.
